Data on four molecules can be found in PMC7954794, “Protein context shapes the specificity of SH3 domain-mediated interactions in vivo” (Nature Communications, 2021).

Assay type in all cases: cell-based, Saccharomyces cerevisiae
Assay [1] deals with 575 putative partners (preys) of 22 WT SH3-containing proteins. In words: DHFR-PCA on solid medium, WT and SH3-deleted baits (Fig. 1B). On the set-up: key to Score: 0: SH3-independent; 1: SH3-dependent PPIs; 2: SH3-inhibited PPIs. As to conditions: for medrep (log2 median colony size normalized to plate background, PCA score): label = prey; for Ratio (SH3-deleted/WT medrep): only significant differences shown, PPIs completely lost have a ratio of 0.1, gained PPIs 2.5. In outline:
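Interactions scored by DHFR protein-fragment complementation on solid medium using robotic pinning; preys (DHFR F[3] fusions) arrayed in duplicate with control borders. Baits carried C-terminal DHFR F[1,2]-FLAG tags, tested as wild type and as SH3-deleted versions carrying a flexible Gly/Ser stuffer.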

The next assay has as its system BBC1. Put plainly: DHFR-PCA on solid medium, bait BBC1 (Fig. 1B). Particulars: bait BBC1, label = prey; for medrep (log2 median colony size normalized to plate background, PCA score): 2-4 replicates; for Ratio (SH3-deleted/WT medrep): only significant differences showed, PPIs completely lost have a ratio of 0.1 and the gained PPIs 2.5. The source says:
(§1) Supplement 41467_2021_21873_MOESM8_ESM.xlsx, sheet "Fig1B" | column: medsize; medrep; Ratio; Score

The subject of the next assay is ABP1. In words: DHFR-PCA on solid medium, bait ABP1 (Fig. 1B). Particulars: bait ABP1, label = prey; 2-4 replicates.
Source text: as §1

Where [2] appears, read: bait SLA1-2, DHFR-PCA, Replicates 4 (2 for YCR009C, YDR388W).
Where [3] appears, read: bait SLA1-3, DHFR-PCA, Replicates 4 (2 for YCR009C, YDR388W, YIL033C).

B1: YIR003W (protein, UniProt P40563 1-679, looked up)
Altered inheritance of …: MPSEVTPKVPERPSRRKTSELFPLSGSESGDIKANSEPPTPAGTPNVPTRRPILKAKTMTSFESGMDQESLPKVPLQRPVRRSTTEELNNVMNNTSKELEEIESLISKHNIHNVSRKKSPTSVEEGKVAAIHQNGQRSASDNKTSTNPSPLEKNEHEGAEGNESAISPSNLVNKSNNEVTEHSDSEDLTEKQKVHAALDNEAGDRSHFEEKLIPGDMKVQVDVSKDVEEGSLNALPPSGITESDDKAEKFTKHPESSLEELQKHQEQQEEKIFQNPTDEESTTSLNEKQEGKDNMEVNSQPQGPSDTETVIAATSSNVPSQIASEEENDVPVIPRSRPKKDFEAHVQKEELPNTQEKRVSEECDSTLISTEEESKIPKIPSERPKRRAPPPVPKKPSSRIAAFQEMLQKQQQQDLHNNGNSSATTASADIAKKHTDSSITSDTTKADFTSKLNGLFALPGMVNPGQLPPSLEKKLSSPDTESKLGPQDQSQAKTGPLGGTRRGRGPRGRKLPSKVASVEKIEEDDNTNKIEIFNNWNVSSSFSKEKVLIDTTPGEQAERALDEKSKSIPEEQREQSPNKMEAALCPFELDEKEKLPANAESDPLSQLPQTNAVGNRKAISEESLSPSEAIANRDQNDTTEIQEQQMEDQMEVDMERELSGGYEDVDSALHSEEASFHSL
Regarding B1, the “medrep (log2 median colony size normalized to plate background, PCA score)” value in assay [1] (setting [2]) turned out to be 2.274; in assay [1] (setting [3]), 2.274; in the assay on BBC1, 5.119; with ABP1, 4.768. In addition, the Score in assay [1] (bait SLA1-2, label = prey) is given as 1; in assay [1] (bait SLA1-3, label = prey) it was 0. Further, the “Ratio (SH3-deleted/WT medrep)” value in assay [1] (bait SLA1-2, label = prey) is recorded as 0.1.

B2: YLR337C (protein, UniProt P37370 1-817, looked up)
Verprolin: MAGAPAPPPPPPPPALGGSAPKPAKSVMQGRDALLGDIRKGMKLKKAETNDRSAPIVGGGVVSSASGSSGTVSSKGPSMSAPPIPGMGAPQLGDILAGGIPKLKHINNNASTKPSPSASAPPIPGAVPSVAAPPIPNAPLSPAPAVPSIPSSSAPPIPDIPSSAAPPIPIVPSSPAPPLPLSGASAPKVPQNRPHMPSVRPAHRSHQRKSSNISLPSVSAPPLPSASLPTHVSNPPQAPPPPPTPTIGLDSKNIKPTDNAVSPPSSEVPAGGLPFLAEINARRSERGAVEGVSSTKIQTENHKSPSQPPLPSSAPPIPTSHAPPLPPTAPPPPSLPNVTSAPKKATSAPAPPPPPLPAAMSSASTNSVKATPVPPTLAPPLPNTTSVPPNKASSMPAPPPPPPPPPGAFSTSSALSASSIPLAPLPPPPPPSVATSVPSAPPPPPTLTTNKPSASSKQSKISSSSSSSAVTPGGPLPFLAEIQKKRDDRFVVGGDTGYTTQDKQEDVIGSSKDDNVRPSPISPSINPPKQSSQNGMSFLDEIESKLHKQTSSNAFNAPPPHTDAMAPPLPPSAPPPPITSLPTPTASGDDHTNDKSETVLGMKKAKAPALPGHVPPPPVPPVLSDDSKNNVPAASLLHDVLPSSNLEKPPSPPVAAAPPLPTFSAPSLPQQSVSTSIPSPPPVAPTLSVRTETESISKNPTKSPPPPPSPSTMDTGTSNSPSKNLKQRLFSTGGSTLQHKHNTHTNQPDVDVGRYTIGGSNSIVGAKSGNERIVIDDSRFKWTNVSQMPKPRPFQNKTKLYPSGKGSSVPLDLTLFT
Take B2: the “medrep (log2 median colony size normalized to plate background, PCA score)” value in assay [1] (setting [2]) worked out at 2.095; in assay [1] (setting [3]), 4.892; in the assay on BBC1 it was 2.429; in the assay with ABP1, 4.481. For the same molecule, the Score is recorded as 1 in assay [1] (bait SLA1-2, label = prey) and 0 in assay [1] (bait SLA1-3, label = prey). Besides, the “Ratio (SH3-deleted/WT medrep)” value in assay [1] (bait SLA1-2, label = prey) came out at 0.4282; in the assay with BBC1 it was 0.57.

B3: YIR006C (protein, UniProt P32521 1-1480, looked up)
Actin cytoskeleton-regulatory …: MYNPYQQQGMGYQQQQQQQQQQPNGFYPQQQQGQSSNQPQGQPQPQQQMAFNQPQATGIGGMPQSFGNSFSSMPQQPQTGYNNNGNNGSVYGNGNFGQQPQQQQQQAKPQHTGYVPNSSMPMMNTTGTMPPPNPAQQPQLQSIQPQGTGYYQAANTANVHSVQPLQSQGTGYYVSTPNLISSNQTQQPLQAQGTGYYQSQPQQVPPPQQAQSLQPLKPQQTGFYLQPQNQAPLEPLKPTATGFVNSFANNGLNNDIKIPAIRLSFITAQDQAKFETLFRSIVTNGSNTVSGANCRKILMRSGLPPSQLARIWTLCDTSKAGELLFPEFALAMHLINDVLQGDTIPYELDSKTKNEVSSFIDAINLSIANQDSSANDAPKTPFDEFITAGVQNLQPQPTGYMPQTSFGIPLQSQITGGGVASALNPQSTGFMAPTTFNMSMNTGTPGLNPQITGGAPASMQPNITGNALQPQTTGMMPQTTGMMPQTTGMMPQTSFGVNLGPQLTGGALQSQYTGGYGSVMPQQSGPASMPNLSFNQQGLQSQLTGLQPQPTGFLPPSNFSATMPLTAQKTGFGNNEIYTKSNFNNNLIDNSSQDKISTEEKSLFYKIFETFDTQNKGLLDSPTAVEIFRKSGLNRADLEQIWNLCDINNTGQLNKQEFALGMHLVYGKLNGKPIPNVLPSSLIPSSTKLLDNLKNQLKTEPTTTKEKPSFGKIDALSYKNNDDDVLPNYRNRRKVYSAKNEEQSSFSSPSAKSVNHSSSTLQTDDISVDKTVEKKTAKPKYAGFSREINLKNIASLENEIKNISNPENCYDSSIPSDLTSRFDAIIAKLPNLFNEISTIDNEITNAKIQLYRKKNPSSIIGSGPNGEITENDRKKAKSRALLRARMSALTGKSTESEDSLSMEDEQQSAEIKRIQQENGKNQEIIKDIRSSISDISASLKSTMTGSNMISNQEFERWEFGIGLEDGVREFLDDLKSNSNKSVTESSPFVPSSTPTPVDDRSSSPSYSQFKTAEERAAYLKEQAKKRMKEKLAKFDKNRRNVTQSSRSISSENSREQPQQIAGSSNLVEPRATPFQEEKYVEVAQPTQPVQSTQPVQPTQPVQPTQPVQPTQPVQPTQPVQPTQPVQNVYNAKQESDDEDEDDEEKRLQEELKRLKLKKKADKEKRLAALRKQIEDAQNESDEEETNGKDNFGGHVNVPQAAPVAPSAAFSQNSTNAPRSVHAAVTPAAGKNSTGLPSTTMGHNPYFKDASASSTSTFDARAAEMQRRIQRGLDEDEDDGWSDEDESNNRVAVDNKVEEAKIGHPDHARAPPVTAAPLPSVTPVPPAVPVPQANTSNEKSSPIPIAPIPPSVTQEPPVPLAPPLPAVDGFQEPPIPSAPAIATAVQKSGSSTPALAGGVLPPPPPLPTQQASTSEPIIAHVDNYNGAEKGTGAYGSDSDDDVLSIPESVGTDEEEEGAQPVSTAGIPSIPPAGIPPPPPLP
For B3, the figures for the “medrep (log2 median colony size normalized to plate background, PCA score)” value (in assay [1] (setting [3]); with BBC1; in the assay with ABP1) were 4.7899, 1.896 and 5.062, respectively. In addition, the Score in assay [1] (bait SLA1-3, label = prey) was 0. Further, the “Ratio (SH3-deleted/WT medrep)” value in the assay with BBC1 turned out to be 0.4416.

B4: YOR042W (protein, UniProt Q08412 1-411, looked up)
Ubiquitin-binding protein CUE5: MEEKEGIKDSSLLEKSNVPESINEDISKTTDVDLNSDGKKDNDTSAKDGTPKVEEKVNKSSGIDEDEVVTPAEDAKEEEEEHPPLPARRKSEEEPSKENPILQELKDAFPNLEEKYIKAVIIASQGVLSPAFNALLFLSDPESGKDIELPTQPVRKNPEAPARRRQTQLEQDELLARQLDEQFNSSHSRRRNRDRATRSMHEQRRRRHNPNEREQHHEDSEEEDSWSQFVEKDLPELTDRAGRSLQDTANKVSNWISDAYRRNFASGNEQNDNQHGHQDQQEWEPEIVDLSQGGKNSRPQQPERRRFNSFGVQVGDDSLESHGITLHNEDGFEDDEDVPPQLPTRTKSGESTGKVVAETTYIDTPDTETKKKWQPLPPEPLDTTPTKVNAVSRNKKNPDEDEFLINSDDEM
For B4, the “medrep (log2 median colony size normalized to plate background, PCA score)” value in assay [1] (setting [2]) worked out at 2.528; in assay [1] (setting [3]), 2.528; with BBC1, 1.718; in the assay on ABP1, 4.057. Besides, the Score is listed as 1 in assay [1] (bait SLA1-2, label = prey) and 0 in assay [1] (bait SLA1-3, label = prey). For the same molecule, the “Ratio (SH3-deleted/WT medrep)” value in assay [1] (bait SLA1-2, label = prey) came to 0.1; in the assay with BBC1 it was 0.1.
